Reference: IntAct's records for PubMed 31515488

B1: Chorion-specific transcription factor GCMb (Homo sapiens), O75603 (parent)
chain: MPAAAVQEAVGVCSYGMQLSWDINDPQMPQELALFDQFREWPDGYVRFIYSSDEKKAQRHLSGWAMRNTNNHNGHILKKSCLGVVVCTQACTLPDGSRLQLRPAICDKARLKQQKKACPNCHSALELIPCRGHSGYPVTNFWRLDGNAIFFQAKGVHDHPRPESKSETEARRSAIKRQMASFYQPQKKRIRESEAEENQDSSGHFSNIPPLENPEDFDIVTETSFPIPGQPCPSFPKSDVYKATCDLATFQGDKMPPFQKYSSPRIYLPRPPCSYELANPGYTNSSPYPTLYKDSTSIPNDTDWVHLNTLQCNVNSYSSYERSFDFTNKQHGWKPALGKPSLVERTNHGQFQAMATRPYYNPELPCRYLTTPPPGAPALQTVITTTTKVSYQAYQPPAMKYSDSVREVKSLSSCNYAPEDTGMSVYPEPWGPPVTVTRAASPSGPPPMKIAGDCRAIRPTVAIPHEPVSSRTDEAETWDVCLSGLGSAVSYSDRVGPFFTYNNEDF
B2: Tuftelin-interacting protein 11 (Homo sapiens), Q9UBB9 (parent)
chain: MSLSHLYRDGEGRIDDDDDERENFEITDWDLQNEFNPNRQRHWQTKEEATYGVWAERDSDDERPSFGGKRARDYSAPVNFISAGLKKGAAEEAELEDSDDEEKPVKQDDFPKDFGPRKLKTGGNFKPSQKGFAGGTKSFMDFGSWERHTKGIGQKLLQKMGYVPGRGLGKNAQGIINPIEAKQRKGKGAVGAYGSERTTQSMQDFPVVDSEEEAEEEFQKELSQWRKDPSGSKKKPKYSYKTVEELKAKGRISKKLTAPQKELSQVKVIDMTGREQKVYYSYSQISHKHNVPDDGLPLQSQQLPQSGKEAKAPGFALPELEHNLQLLIDLTEQEIIQNDRQLQYERDMVVNLFHELEKMTEVLDHEERVISNLSKVLEMVEECERRMQPDCSNPLTLDECARIFETLQDKYYEEYRMSDRVDLAVAIVYPLMKEYFKEWDPLKDCTYGTEIISKWKSLLENDQLLSHGGQDLSADAFHRLIWEVWMPFVRNIVTQWQPRNCDPMVDFLDSWVHIIPVWILDNILDQLIFPKLQKEVENWNPLTDTVPIHSWIHPWLPLMQARLEPLYSPIRSKLSSALQKWHPSDSSAKLILQPWKDVFTPGSWEAFMVKNIVPKLGMCLGELVINPHQQHMDAFYWVIDWEGMISVSSLVGLLEKHFFPKWLQVLCSWLSNSPNYEEITKWYLGWKSMFSDQVLAHPSVKDKFNEALDIMNRAVSSNVGAYMQPGARENIAYLTHTERRKDFQYEAMQERREAENMAQRGIGVAASSVPMNFKDLIETKAEEHNIVFMPVIGKRHEGKQLYTFGRIVIYIDRGVVFVQGEKTWVPTSLQSLIDMAK
partner: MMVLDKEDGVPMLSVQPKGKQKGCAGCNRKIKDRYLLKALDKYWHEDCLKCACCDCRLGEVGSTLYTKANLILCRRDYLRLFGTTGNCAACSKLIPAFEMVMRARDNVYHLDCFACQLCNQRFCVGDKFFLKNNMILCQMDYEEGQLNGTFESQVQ
B3: Splicing factor 45 (Homo sapiens), Q96I25 (parent)
chain: MSLYDDLGVETSDSKTEGWSKNFKLLQSQLQVKKAALTQAKSQRTKQSTVLAPVIDLKRGGSSDDRQIVDTPPHVAAGLKDPVPSGFSAGEVLIPLADEYDPMFPNDYEKVVKRQREERQRQRELERQKEIEEREKRRKDRHEASGFARRPDPDSDEDEDYERERRKRSMGGAAIAPPTSLVEKDKELPRDFPYEEDSRPRSQSSKAAIPPPVYEEQDRPRSPTGPSNSFLANMGGTVAHKIMQKYGFREGQGLGKHEQGLSTALSVEKTSKRGGKIIVGDATEKDASKKSDSNPLTEILKCPTKVVLLRNMVGAGEVDEDLEVETKEECEKYGKVGKCVIFEIPGAPDDEAVRIFLEFERVESAIKAVVDLNGRYFGGRVVKACFYNLDKFRVLDLAEQV
B4: Serine/threonine-protein kinase PAK 5 (Homo sapiens), Q9P286 (parent)
chain: MFGKKKKKIEISGPSNFEHRVHTGFDPQEQKFTGLPQQWHSLLADTANRPKPMVDPSCITPIQLAPMKTIVRGNKPCKETSINGLLEDFDNISVTRSNSLRKESPPTPDQGASSHGPGHAEENGFITFSQYSSESDTTADYTTEKYREKSLYGDDLDPYYRGSHAAKQNGHVMKMKHGEAYYSEVKPLKSDFARFSADYHSHLDSLSKPSEYSDLKWEYQRASSSSPLDYSFQFTPSRTAGTSGCSKESLAYSESEWGPSLDDYDRRPKSSYLNQTSPQPTMRQRSRSGSGLQEPMMPFGASAFKTHPQGHSYNSYTYPRLSEPTMCIPKVDYDRAQMVLSPPLSGSDTYPRGPAKLPQSQSKSGYSSSSHQYPSGYHKATLYHHPSLQSSSQYISTASYLSSLSLSSSTYPPPSWGSSSDQQPSRVSHEQFRAALQLVVSPGDPREYLANFIKIGEGSTGIVCIATEKHTGKQVAVKKMDLRKQQRRELLFNEVVIMRDYHHDNVVDMYSSYLVGDELWVVMEFLEGGALTDIVTHTRMNEEQIATVCLSVLRALSYLHNQGVIHRDIKSDSILLTSDGRIKLSDFGFCAQVSKEVPKRKSLVGTPYWMAPEVISRLPYGTEVDIWSLGIMVIEMIDGEPPYFNEPPLQAMRRIRDSLPPRVKDLHKVSSVLRGFLDLMLVREPSQRATAQELLGHPFLKLAGPPSCIVPLMRQYRHH
partner: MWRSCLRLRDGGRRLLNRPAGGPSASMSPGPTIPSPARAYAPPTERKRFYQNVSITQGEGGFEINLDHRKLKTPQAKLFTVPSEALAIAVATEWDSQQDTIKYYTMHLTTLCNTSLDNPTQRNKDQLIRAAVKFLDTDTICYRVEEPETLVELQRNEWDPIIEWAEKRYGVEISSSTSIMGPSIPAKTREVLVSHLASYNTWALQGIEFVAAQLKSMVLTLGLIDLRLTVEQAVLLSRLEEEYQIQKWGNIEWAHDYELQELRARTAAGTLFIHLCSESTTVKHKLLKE

Variants of: B1
Details: with crx_human CRX

Variant | effect of a mutation on the interaction
D53N | with no effect

Variants of: B1
Details: with fhl3_human FHL3, Q13643
Sequence of fhl3_human FHL3, Q13643 (Q13643 whole entry): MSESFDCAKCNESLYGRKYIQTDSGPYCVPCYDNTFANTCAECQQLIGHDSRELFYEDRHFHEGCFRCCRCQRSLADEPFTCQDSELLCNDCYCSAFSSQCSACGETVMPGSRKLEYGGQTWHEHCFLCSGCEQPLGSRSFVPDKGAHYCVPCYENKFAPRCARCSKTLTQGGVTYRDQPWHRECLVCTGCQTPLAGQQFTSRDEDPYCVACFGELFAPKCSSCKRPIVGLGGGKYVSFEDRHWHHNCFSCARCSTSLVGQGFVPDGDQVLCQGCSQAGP

Variant | effect of a mutation on the interaction
D53N | with no effect

Variants of: B1
Details: with rbpms_human RBPMS

Variant | effect of a mutation on the interaction
D53N | with no effect

Variants of: B2
Details: with rbtn1_human LMO1, P25800

Variant | effect of a mutation on the interaction
S688L | with no effect
R8Q | with no effect

Variants of: B3
Details: with sat1_human SAT1, P21673
Sequence of sat1_human SAT1, P21673 (P21673 whole entry): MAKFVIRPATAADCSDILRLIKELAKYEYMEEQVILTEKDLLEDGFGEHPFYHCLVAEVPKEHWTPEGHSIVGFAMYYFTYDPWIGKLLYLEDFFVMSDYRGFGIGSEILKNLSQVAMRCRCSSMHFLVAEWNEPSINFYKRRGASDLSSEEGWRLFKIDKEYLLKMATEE

Variant | effect of a mutation on the interaction
T224I | with no effect

Variants of: B4
Details: with atpf2_human ATPAF2, Q8N5M1

Variant | effect of a mutation on the interaction
R335P | with no effect
